Assays:
[1] = system: PC12-LR8 cells; assay: Northern blot analysis of gene induction in non-differentiated PC12-LR8 cells; assay type: cell-based, rat; conditions: cycloheximide from 30 minutes before induction for 8.5 hours; 24 hours post induction
Procedure: PC12-LR8 cells were treated with leptin (L), forskolin (F), or a combination of both (F/L) for the indicated length of time. Hybridization with the mouse b-actin probe was used as a control. NI stands for non-induced control cells. Sizes of transcripts are shown on the right. Exposure times to Biomax MS films were 5.5 days for LIP-I and LIP-II, and 1 day for the corresponding b-actin blot, all at −80° C.
FIG. 6A. Induction patterns of Reg I, HIP-I and peripherin after a 12 hours stimulation with forskolin (F), leptin (L), forskolin plus leptin (F/L), hyper-IL-6 (H) or forskolin plus hyper-IL-6 (F/H). Untreated cells were analyzed as a control (NI). Exposure times to BioMax MS films for Reg I, HIP-I and b-actin were 4 days, 5 days and 3 hours, respectively; and in a separate experiment for peripherin and b-actin, 16 hours and 2 days.
FIG. 6B Induction patterns of PAP I, PAP III, MT-II, Fnk, MRF-1, SOCS-3 and STAT-3 after stimulation with leptin (L) or hyper-IL-6 (H), compared to non-treated control cells (NI). In all cases stimulation was for 12 hours, with the exception of PAP III where stimulation was for 24 hours. b-actin hybridization patterns are shown as control. Exposure times to BioMax MS films at −80° C. were 16 hours for PAP I and 1 hour for b-actin; 4 days for PAP III and 1 hour for b-actin; 3 days for MT-II and Fnk, and2 days for b-actin; 3 days for MRF-1, 2.5 days for SOCS-3 and2 days for b-actin; and 16 hours for STAT-3 and 3 hours for b-actin.
FIG. 8A. Northern blot analysis of the immediate early response genes. PC12-LR8 cells were left untreated (NI: non induced), or were treated with forskolin (F), leptin (L) or a combination of both (F/L) for the indicated time points. Exposure times to BioMax MS films for the different transcripts were Fnk: 6 days, MT-II: 5 days, MRF-1: 6 days, SOCS-3: 14 hours, STAT-3: 14 hours, b-actin: 5 hours.
FIG. 8B. Immediate early response gene-set: early kinetics. PC12-LR8 cells were treated with leptin alone (L) or with a combination of leptin and forskolin (F/L) for the indicated length of time. Exposure time to BioMax MS films were: Fnk: 3 days, MT-II: 3 days, MRF-1: 3 days, SOCS-3: 2.5 days, STAT-3: 2.5 days, b-actin: 1 hour.
FIG. 8C. Northern blot analysis of the late target genes. PC12-LR8 cells were left untreated (NI), or were treated with forskolin (F), leptin (L) or a combination of both (F/L) for the indicated length of time. Exposure times to BioMax MS films were: Ann VIII: 6 days, PAP I: 14 hours, Squalene Epoxidase: 5 days, UGT: 5 days, b-actin: 14 hours.
PC12 cells were cultured in RPMI 1640 medium with glutamax-I (GibcoBRL) containing 10% heat-inactivated foetal calf serum (iFCS) and gentamycin (50 μg/ml). The cells were treated with medium alone or supplemented with 100 ng/ml of mouse leptin (R&D Systems), with forskolin (Sigma) at a concentration of 10 μM or with a combination both, unless otherwise indicated.
Total RNA was prepared from PC12 cells using RNeasy™ method (Qiagen). RNA (10 μg) was separated on a 1.5% agarose,6% formaldehyde gel, transferred to a nylon membrane (Zeta-Probe GT Genomic, Bio-Rad), and cross-linked using UV radiation. The filters were hybridized for one hour at 68° C. in ExpressHyb™ solution (Clontech) with [^32P]dCTP-labeled DNA-probes and washed 3 times with 2×SSC, 0.05% SDS at room temperature and twice in 0.1×SSC, 0.1% SDS at 50° C. Autoradiographs were obtained by exposing the blots to BioMax MS film (Kodak) with intensifying screens at −70° C. All Northern blots were normalized by hybridization using a b-actin probe.

[2] = system: ob/ob mice; assay: Gene expression in leptin treated ob/ob mice (Northern blot); assay type: in vivo; conditions: 100 μg/mouse intraperitoneally, 5 hours after treatment
Procedure: Leptin deficient ob/ob mice were left untreated (−) or were treated with leptin (100 μg; +) intraperitoneally. Mice were killed five hours after treatment. Northern blot analysis of MT-II and Fnk in liver and PAP I expression in jejunum is shown. Hybridization with the mouse b-actin probe was used as a control and is shown below. Exposure times to BioMax MS films were 4 hours, 3 days, 4 hours and 8 hours for MT-II, Fnk, PAP I and b-actin respectively.
In order to assess the value of our in vitro model system for obesity, we investigated the regulation by leptin of a subset of the identified genes in vivo. Recombinant human leptin (R&D Systems) was administered intraperitoneally to leptin deficient ob/ob mice in a single dose of 100 μg leptin /mouse. Mice were killed by cervical dislocation 5 hours after treatment and total RNA was isolated from liver and jejunum. Northern blot analysis was performed using respectively MT-II, Fnk and PAP I as probe (FIG. 9).
Specific pathogen-free female C57BL/6J-Lep^ob mice, 9 weeks old at the beginning of the experiment further referred to as ob/ob were obtained from The Jackson Laboratory (Maine, USA). […] The endotoxin content of the antibody was 0.07 ng/mg protein, as assessed by a chromogenic Limulus amebocyte lysate assay (Coatest, Chromogenix, Stockholm, Sweden). […]

[3] = system: rat Pancreatitis Associated Protein I promoter; assay: pGL3-rPAPluc reporter in PC12-LR8 cells; assay type: cell-based; conditions: rPAP I reporter
Procedure: (§1) FIGS. 1C and 1D. Analysis of b-NGF and forskolin co-stimulation on leptin-induced POMC luciferase (C) or rPAP luciferase activity (D). PC12-LR8 cells were transiently transfected with pGL3-hPOMCluc or pGL3-rPAPluc reporter and treated after two days with forskolin (F: 10 μM), leptin (L: 100 ng/ml), and rat b-NGF (N: 1 ng/ml) as indicated or were left untreated (NI). 24 hours after treatment, cells were lysed and assayed for luciferase activity.
(§2) Leptin responsiveness in PC12 cells was further investigated using a clone stably expressing the long isoform of the mouse leptin receptor (PC12-LR8, see below). After transfection of PC12-LR8 with a reporter construct based on the human POMC (proopiomelanocortin) promoter (pGL3-POMCluc) (FIG. 1 portion C), or a reporter construct based on the rat Pancreatitis Associated Protein I promoter (See below) (FIG. 1 portion D), leptin induced luciferase activity was measured. […]
(§3) Luciferase activity was measured in transfected cells by chemiluminescence. […] 70 μl of luciferase substrate buffer (20 mM Tricine; 1.07 mM (MgCO3)4Mg(OH)25H2O; 2.67 mM MgSO4; 0.1 mM EDTA; 33.3 mM DTT; 270 μM Coenzyme A (lithium salt); 470 μM Luciferin (Duchefa); 530 μM ATP, final pH 7.8) was added to 100 μl of cell lysate and measured for 5 seconds by TopCount.NXT Chemiluminescence Counter (Packard).

[4] = system: human POMC (proopiomelanocortin) promoter; assay: pGL3-POMCluc reporter in PC12-LR8 cells; assay type: cell-based, rat
Procedure: as §1, §2, §3

## C[C@@H]1C[C@@H]([C@H](O)CC2CC(=O)NC(=O)C2)C(=O)[C@@H](C)C1 [cycloheximide, reference compound]
[1]
  rPAP I and Annexin VIII mRNA expression: strongly reduced expression

## Recombinant human leptin: Recombinant human leptin (R&D Systems) administered intraperitoneally to mice
[2]
  MT-II and Fnk mRNA expression in liver: clear induction
  expression of PAP I in jejunum: downregulated

B1: b-NGF: recombinant rat b-nerve growth factor (protein, UniProt P25427 122-241, looked up)
Beta-nerve growth factor: SSTHPVFHMGEFSVCDSVSVWVGDKTTATDIKGKEVTVLGEVNINNSVFKQYFFETKCRAPNPVESGCRGIDSKHWNSYCTTTHTFVKALTTDDKQAAWRFIRIDTACVCVLSRKAARRG
[3]; b-NGF 1 ng/ml
  co-stimulation of leptin induced luciferase activity: mimicked
[3]
  combined b-NGF and forskolin effects on leptin induced luciferase activity: additive
[4]
  combined b-NGF and forskolin effects on leptin induced luciferase activity: additive
[4]; b-NGF 1 ng/ml
  co-stimulation of leptin induced luciferase activity: mimicked

— US7291458B2, “Leptin-mediated gene-induction” (Vlaams Interuniversitair Instituut Voor Biotechnologie VZW, priority 1998, dated 2007)
